Columns and labels:
Assay in all cases: SPR; cytokine immobilised on ProteOn GLH sensor chip by amine coupling (9,000-14,000 RU); S100P (wild type or mutant) as analyte, 62 nM-16 µM; 25 °C; 10 mM HEPES, 150 mM NaCl, 1 mM CaCl2, 0.05% TWEEN 20, pH 7.4; heterogeneous ligand model (two ligand populations), one-site model for IL-13; values averaged over analyte concentrations (n = 3-5)
Conditions in all cases: both partners purified
[1] = biological target: T1, Prolactin (human, UniProt P01236 29-227)
T1 construct: Prolactin, human, UniProt P01236; see the manufacturer's catalogue number; also called PRL; source: bought: PeproTech (source E. coli)
T1 sequence (looked up): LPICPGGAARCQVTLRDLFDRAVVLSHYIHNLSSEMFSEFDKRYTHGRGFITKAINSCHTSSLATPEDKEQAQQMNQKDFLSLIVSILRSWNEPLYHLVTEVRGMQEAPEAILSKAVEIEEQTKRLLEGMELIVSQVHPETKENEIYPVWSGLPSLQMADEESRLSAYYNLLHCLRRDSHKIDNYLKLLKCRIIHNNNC

[2] = biological target: T2, Interferon ω-1 (human, UniProt P05000 22-195)
T2 construct: Interferon omega-1, human, UniProt P05000; see the manufacturer's catalogue number; also called IFN-ω1; source: bought: PeproTech (source E. coli)

[3] = biological target: T3, Interleukin-9 (human, UniProt P15248 19-144)
T3 construct: Interleukin-9, human, UniProt P15248; see the manufacturer's catalogue number; also called IL-9; source: bought: PeproTech (source E. coli)

[4] = biological target: T4, Somatotropin (human, UniProt P01241 27-217)
T4 construct: Somatotropin (growth hormone), human, UniProt P01241; see the manufacturer's catalogue number; also called GH; growth hormone; source: bought: PeproTech (source E. coli)

[5] = biological target: T5, Interleukin-5 (human, UniProt P05113 20-134)
T5 construct: Interleukin-5, human, UniProt P05113; also called IL-5; source: bought: PeproTech (source E. coli)

[6] = biological target: T6, Interleukin-3 (human, UniProt P08700 20-152)
T6 construct: Interleukin-3, human, UniProt P08700; see the manufacturer's catalogue number; also called IL-3; source: bought: SCI-Store (Russia) (source CHO)
T6 sequence (looked up): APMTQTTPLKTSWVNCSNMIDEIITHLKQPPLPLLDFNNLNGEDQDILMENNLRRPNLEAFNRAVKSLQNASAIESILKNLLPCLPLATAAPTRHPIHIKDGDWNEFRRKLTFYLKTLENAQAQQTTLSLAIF

[7] = biological target: T7, Interleukin-13 (human, UniProt P35225 25-146)
T7 construct: Interleukin-13, human, UniProt P35225; see the manufacturer's catalogue number; also called IL-13; source: bought: PeproTech (source E. coli)
T7 sequence (P35225 25-146): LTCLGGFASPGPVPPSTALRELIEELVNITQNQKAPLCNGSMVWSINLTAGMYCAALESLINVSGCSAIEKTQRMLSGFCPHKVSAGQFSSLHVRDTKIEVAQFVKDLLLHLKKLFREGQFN

T3 sequence (P15248 19-144): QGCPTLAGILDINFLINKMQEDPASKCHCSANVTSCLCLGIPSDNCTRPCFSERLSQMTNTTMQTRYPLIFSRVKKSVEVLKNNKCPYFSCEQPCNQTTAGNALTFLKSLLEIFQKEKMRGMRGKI
T5 sequence (P05113 20-134): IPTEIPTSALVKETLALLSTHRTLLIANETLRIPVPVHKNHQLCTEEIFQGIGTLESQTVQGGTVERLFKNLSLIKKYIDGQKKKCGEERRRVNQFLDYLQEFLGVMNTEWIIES
T4 sequence (P01241 27-217): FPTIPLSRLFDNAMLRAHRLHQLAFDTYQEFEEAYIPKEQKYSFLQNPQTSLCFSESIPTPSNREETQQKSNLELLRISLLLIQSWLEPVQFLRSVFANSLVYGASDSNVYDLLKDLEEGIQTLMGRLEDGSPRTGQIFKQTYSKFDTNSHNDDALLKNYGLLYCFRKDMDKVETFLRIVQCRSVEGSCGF
T2 sequence (P05000 22-195): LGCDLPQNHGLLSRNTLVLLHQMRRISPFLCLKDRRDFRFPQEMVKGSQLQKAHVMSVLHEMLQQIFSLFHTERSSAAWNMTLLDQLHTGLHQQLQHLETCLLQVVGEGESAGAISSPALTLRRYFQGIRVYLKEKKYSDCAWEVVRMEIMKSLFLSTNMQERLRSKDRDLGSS

Kd1 (heterogeneous ligand model, population 1) [1]: 54.6 nM | Kd2 (heterogeneous ligand model, population 2) [1]: 906 nM | kd1 (heterogeneous ligand model, population 1) [1]: 0.000981 s⁻¹ | kd2 (heterogeneous ligand model, population 2) [1]: 0.0103 s⁻¹ | Kd1 (heterogeneous ligand model, population 1) [2]: 174 nM | Kd2 (heterogeneous ligand model, population 2) [2]: 578 nM | kd1 (heterogeneous ligand model, population 1) [2]: 0.000571 s⁻¹ | kd2 (heterogeneous ligand model, population 2) [2]: 0.00839 s⁻¹ | Kd1 (heterogeneous ligand model, population 1) [3]: 34.7 nM | Kd2 (heterogeneous ligand model, population 2) [3]: 136 nM | kd1 (heterogeneous ligand model, population 1) [3]: 0.000531 s⁻¹ | kd2 (heterogeneous ligand model, population 2) [3]: 0.017 s⁻¹ | Kd1 (heterogeneous ligand model, population 1) [4]: 42.9 nM | Kd2 (heterogeneous ligand model, population 2) [4]: 266 nM | kd1 (heterogeneous ligand model, population 1) [4]: 0.000669 s⁻¹ | kd2 (heterogeneous ligand model, population 2) [4]: 0.0142 s⁻¹ | Kd1 (heterogeneous ligand model, population 1) [5]: 3.66 nM | Kd2 (heterogeneous ligand model, population 2) [5]: 833 nM | kd1 (heterogeneous ligand model, population 1) [5]: 0.000612 s⁻¹ | kd2 (heterogeneous ligand model, population 2) [5]: 0.00712 s⁻¹ | Kd1 (heterogeneous ligand model, population 1) [6]: 23.2 nM | Kd2 (heterogeneous ligand model, population 2) [6]: 579 nM | kd1 (heterogeneous ligand model, population 1) [6]: 0.000627 s⁻¹ | kd2 (heterogeneous ligand model, population 2) [6]: 0.00529 s⁻¹ | Kd [7]: 2300 nM | koff [7]: 0.0183 s⁻¹
B1: Human S100P protein (recombinant, Ca^2+-loaded) (natural protein)
chain: MTELETAMGMIIDVFSRYSGSEGSTQTLTKGELKVLMEKELPGFLQSGKDKDAVDKLLKDLDANGDAQVDFSEFIVFVAAITSACHKYFEKAGLK
notes: S100P protein, human, recombinant; probably the whole 95-residue protein (surmise); also called wild-type S100P; WT S100P; source: E. coli, prepared as previously described [28]

— article PMC9569990 (International Journal of Molecular Sciences, 2022)
